Paper PMC12810954, “Targeted computational design of an interleukin-7 superkine with enhanced folding efficiency and immunotherapeutic efficacy” (eLife, 2026)

Molecular target: T1, recombinant murine IL-7 receptor alpha (mouse, UniProt P16872 21-239)
T1 construct: interleukin-7 receptor subunit alpha, mouse; Probably the extracellular domain (catalogue product); The SPR methods say only 'recombinant murine IL7Rα' without a supplier; also called IL7Rα; mIL-7Rα; source: bought: Sino Biological; not shown: polyhistidine, C-terminal, kept
T1 sequence (looked up): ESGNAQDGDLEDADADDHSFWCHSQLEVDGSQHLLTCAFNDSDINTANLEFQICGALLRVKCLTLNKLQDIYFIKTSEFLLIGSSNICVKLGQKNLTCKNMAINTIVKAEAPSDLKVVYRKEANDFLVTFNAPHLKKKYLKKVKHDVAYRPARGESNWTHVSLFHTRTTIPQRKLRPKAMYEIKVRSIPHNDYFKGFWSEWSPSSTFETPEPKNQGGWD
Assay: SPR; murine IL7Rα immobilised on a CM5 chip by amine coupling (Rmax below 30); threefold serial dilutions of WT-IL7 and Neo-7 variants in HBS-EP+ at 50 µL/min, association 180 s, dissociation 600 s; Biacore T200
Settings: both partners purified

Kd: 13.4 nM | koff: 0.0784 s⁻¹ | kon: 5.86e+06 M⁻¹ s⁻¹
B1: recombinant WT-IL7, E. coli expressed and refolded (ligand, human, UniProt P13232 26-177, looked up)
chain: DCDIEGKDGKQYESVLMVSIDQLLDSMKEIGSNCLNNEFNFFKRHICDANKEGMFLFRAARKLRQFLKMNSTGDFDLHLLKVSEGTTILLNCTGQVKGRKPAALGEAQPTKSLEENKSLKEQKKLNDLCFLKRLLQEIKTCWNKILMGTKEH
notes: interleukin-7, human, wild type; The methods say only that a similar procedure as for Neo-7 was used
